Test results from patent US20230250461A1.

Assays:
[1] = target: IvaP from Vibrio cholerae, the alkaline serine protease corresponding to the gene VC 0157 (purified) (Vibrio cholerae); experiment: cell-based or functional assay
[2] = target: IvaP from Vibrio cholerae, the alkaline serine protease corresponding to the gene VC 0157 (purified) (Vibrio cholerae); experiment: solvatochromic dye fluorescence, plate reader; I9-dye conjugate 3 µM, IvaP 1 µM (FIG. 7A)
[3] = target: IvaP from Vibrio cholerae, the alkaline serine protease corresponding to the gene VC 0157 (purified) (Vibrio cholerae); experiment: solvatochromic dye fluorescence, multi-well plate reader; probe 3 µM, IvaP 1 µM preincubated with PMSF (FIG. 9B)

Substance | decrease in fluorescence intensity [1] [fold] | relative fluorescence change (Fbound/Funbound) [2] [fold] | increase in fluorescence intensity [3] [fold]
I9 E123C-MDCC conjugate (peptide) | 4 |  | 
I9 I128C-IANBD conjugate (peptide) |  | 2 | 2
